Experimental findings from patent publication US6890516 are described below.

The assay concerns the target Drosophila nitric oxide synthase (DNOS) (Drosophila) (UniProt Q27571). The assay can be described thus: cell-based or functional assay.

Drosophila nitric oxide synthase (DNOS) (Drosophila), sequence (Q27571 other isoform, or with tags, fused parts or gaps limits assumed): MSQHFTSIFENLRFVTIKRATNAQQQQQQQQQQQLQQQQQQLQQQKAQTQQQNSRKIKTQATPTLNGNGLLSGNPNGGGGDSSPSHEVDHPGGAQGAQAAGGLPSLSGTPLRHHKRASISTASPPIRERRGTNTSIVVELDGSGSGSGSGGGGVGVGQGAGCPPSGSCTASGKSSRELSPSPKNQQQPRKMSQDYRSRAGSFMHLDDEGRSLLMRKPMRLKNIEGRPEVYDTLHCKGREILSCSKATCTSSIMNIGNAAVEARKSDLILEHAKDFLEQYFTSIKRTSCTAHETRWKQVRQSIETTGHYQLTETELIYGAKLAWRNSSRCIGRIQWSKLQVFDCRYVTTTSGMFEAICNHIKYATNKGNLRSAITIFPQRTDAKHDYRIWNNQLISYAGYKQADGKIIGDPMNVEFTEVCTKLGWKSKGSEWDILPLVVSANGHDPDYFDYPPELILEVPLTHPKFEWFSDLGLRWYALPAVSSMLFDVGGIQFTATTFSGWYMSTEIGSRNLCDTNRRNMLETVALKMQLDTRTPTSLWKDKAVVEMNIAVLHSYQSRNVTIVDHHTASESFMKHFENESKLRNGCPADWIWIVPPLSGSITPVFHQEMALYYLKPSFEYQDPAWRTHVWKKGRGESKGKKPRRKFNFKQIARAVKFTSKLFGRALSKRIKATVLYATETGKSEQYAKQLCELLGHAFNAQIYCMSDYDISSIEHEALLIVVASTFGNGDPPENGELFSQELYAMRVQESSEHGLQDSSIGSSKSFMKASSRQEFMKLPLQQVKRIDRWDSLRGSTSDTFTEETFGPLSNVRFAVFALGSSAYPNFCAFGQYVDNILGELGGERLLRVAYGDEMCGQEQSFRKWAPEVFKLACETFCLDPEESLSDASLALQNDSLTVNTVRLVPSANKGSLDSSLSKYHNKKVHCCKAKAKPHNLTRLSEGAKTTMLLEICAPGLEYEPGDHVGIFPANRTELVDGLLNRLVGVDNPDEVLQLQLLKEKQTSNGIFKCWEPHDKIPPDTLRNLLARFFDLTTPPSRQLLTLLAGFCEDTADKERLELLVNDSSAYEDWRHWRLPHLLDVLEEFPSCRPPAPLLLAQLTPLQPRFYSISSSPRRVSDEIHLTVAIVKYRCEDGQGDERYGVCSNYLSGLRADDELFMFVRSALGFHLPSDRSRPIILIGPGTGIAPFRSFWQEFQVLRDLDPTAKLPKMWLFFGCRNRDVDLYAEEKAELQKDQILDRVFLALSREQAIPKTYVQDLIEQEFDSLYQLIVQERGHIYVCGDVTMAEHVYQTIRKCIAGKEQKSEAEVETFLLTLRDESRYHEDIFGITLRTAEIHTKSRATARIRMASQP

The substance calmodulin registered an NO synthase activity (L-arginine to L-citrulline conversion, 293 cell extracts, with exogenous Ca2+ and calmodulin) of 0.128 pmol/mg/min; an NO synthase activity with 500 µM W5, a calmodulin antagonist of 0.0222 pmol/mg/min; an NO synthase activity with 500 µM W5, a calmodulin antagonist (% of activity) of 18; an NO synthase activity with 1 mM EGTA, without exogenous Ca2+ or calmodulin of 90 % reduction.
